The values below come from article PMC6323126.

The labels stand for the following.
B1: FHA domain (residues 5–135) of SLMAP [human] / MST2 kinase domain (residues 1–308) [human] (parent)
chain 1: LAIFTCRPNSHPFQERHVYLDEPIKIGRSVARCRPAQNNATFDCKVLSRNHALVWFDHKTGKFYLQDTKSSNGTFINSQRLSRGSEESPPCEILSGDIIQFGVDVTENTRKVTHGCIVSTIKLFLPDGMEA
chain 2: MEQPPAPKSKLKKLSEDSLTKQPEEVFDVLEKLGEGSYGSVFKAIHKESGQVVAIKQVPVESDLQEIIKEISIMQQCDSPYVVKYYGSYFKNTDLWIVMEYCGAGSVSDIIRLRNKTLIEDEIATILKSTLKGLEYLHFMRKIHRDIKAGNILLNTEGHAKLADFGVAGQLTDTMAKRNTVIGTPFWMAPEVIQEIGYNCVADIWSLGITSIEMAEGKPPYADIHPMRAIFMIPTNPPPTFRKPELWSDDFTDFVKKCLVKNPEQRATATQLLQHPFIKNAKPVSILRDLITEAMEIKAKRHEEQQRE

The variants in the test derive from B1. Description: BLI. As to conditions: with MST2 kinase domain (residues 1–308) [human]; read at the end of association (about 360 s); parent: 2.1; read off a plot.
As to chain 1 R49A, the response stood at 0.57 nm.
